In ChEMBL document CHEMBL1208712, “Synthesis and anti-HCV activity of 3',4'-oxetane nucleosides” (Bioorg Med Chem Lett, 2010):
Calls of active or inactive are those of the source. No cut-off for these calls is given here.

Tests used:
[1] = tested on: Nc1ccn([C@@H]2O[C@@]3(CO)CO[C@H]3C2(F)F)c(=O)n1; assay: (§1) Activity at human recombinant deoxycytidine kinase expressed in HepG2 cells; type: cell-based
[2] = tested on: Nc1ccn([C@@H]2O[C@@]3(CO)CO[C@H]3[C@@H]2F)c(=O)n1; assay: as §1; type: cell-based
[3] = tested on: Nc1ccn([C@@H]2O[C@@]3(CO)CO[C@H]3[C@H]2F)c(=O)n1; assay: as §1; type: cell-based
[4] = tested on: Nc1ccn([C@@H]2O[C@@]3(CO)CO[C@H]3C2(F)F)c(=O)n1; assay: (§2) Ratio of Kcat/Km for human recombinant deoxycytidine kinase
[5] = tested on: Nc1ccn([C@@H]2O[C@@]3(CO)CO[C@H]3[C@@H]2F)c(=O)n1; assay: as §2
[6] = tested on: Nc1ccn([C@@H]2O[C@@]3(CO)CO[C@H]3[C@H]2F)c(=O)n1; assay: as §2
[7] = target: T1, UMP-CMP kinase (Homo sapiens) (UniProt P30085); assay: Activity at human recombinant UMP-CMP kinase
T1 sequence (whole entry): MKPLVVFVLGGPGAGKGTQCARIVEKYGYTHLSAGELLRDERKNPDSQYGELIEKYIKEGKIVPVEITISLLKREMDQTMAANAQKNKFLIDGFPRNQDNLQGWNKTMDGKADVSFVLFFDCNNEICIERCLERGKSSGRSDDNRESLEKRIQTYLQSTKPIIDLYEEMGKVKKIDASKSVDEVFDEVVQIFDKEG

Deoxycytidine kinase (Homo sapiens), P27707, sequence (P27707 whole entry): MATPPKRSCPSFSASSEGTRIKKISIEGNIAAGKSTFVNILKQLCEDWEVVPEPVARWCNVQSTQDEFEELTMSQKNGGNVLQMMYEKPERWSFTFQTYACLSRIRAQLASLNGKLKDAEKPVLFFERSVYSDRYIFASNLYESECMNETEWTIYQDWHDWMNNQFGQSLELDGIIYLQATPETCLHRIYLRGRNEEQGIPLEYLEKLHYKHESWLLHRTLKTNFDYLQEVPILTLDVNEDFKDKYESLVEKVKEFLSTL

Deoxycytidine kinase (Homo sapiens), P27707
Km [1]: 27.6 µM
kcat [1]: 0.0599 s⁻¹
Km [2]: 81.1 µM
kcat [2]: 0.122 s⁻¹
Km [3]: 61 µM
kcat [3]: 0.0214 s⁻¹
kcat/Km (10'-3/microM/s) [4]: 2.2
kcat/Km (10'-3/microM/s) [5]: 1.5
kcat/Km [6]: 3.5 ×10⁻⁴ /µM/s

Nc1ccn([C@@H]2O[C@@]3(CO)CO[C@H]3[C@@H]2F)c(=O)n1
Activity [7]: inactive

Nc1ccn([C@@H]2O[C@@]3(CO)CO[C@H]3C2(F)F)c(=O)n1
Activity [7]: inactive

Nc1ccn([C@@H]2O[C@@]3(CO)CO[C@H]3[C@H]2F)c(=O)n1
Activity [7]: inactive
